According to US20200079855A1 (Pfizer, published 2020):
Positions count from the first letter of the chain named.

T1: recombinant cynomolgus monkey αvβ8 integrin (cynomolgus monkey, limits assumed)
T1 construct: Recombinant protein immobilised on the Biacore chip; also called cyno αvβ8; cynomolgus αvβ8
T1 chain 1: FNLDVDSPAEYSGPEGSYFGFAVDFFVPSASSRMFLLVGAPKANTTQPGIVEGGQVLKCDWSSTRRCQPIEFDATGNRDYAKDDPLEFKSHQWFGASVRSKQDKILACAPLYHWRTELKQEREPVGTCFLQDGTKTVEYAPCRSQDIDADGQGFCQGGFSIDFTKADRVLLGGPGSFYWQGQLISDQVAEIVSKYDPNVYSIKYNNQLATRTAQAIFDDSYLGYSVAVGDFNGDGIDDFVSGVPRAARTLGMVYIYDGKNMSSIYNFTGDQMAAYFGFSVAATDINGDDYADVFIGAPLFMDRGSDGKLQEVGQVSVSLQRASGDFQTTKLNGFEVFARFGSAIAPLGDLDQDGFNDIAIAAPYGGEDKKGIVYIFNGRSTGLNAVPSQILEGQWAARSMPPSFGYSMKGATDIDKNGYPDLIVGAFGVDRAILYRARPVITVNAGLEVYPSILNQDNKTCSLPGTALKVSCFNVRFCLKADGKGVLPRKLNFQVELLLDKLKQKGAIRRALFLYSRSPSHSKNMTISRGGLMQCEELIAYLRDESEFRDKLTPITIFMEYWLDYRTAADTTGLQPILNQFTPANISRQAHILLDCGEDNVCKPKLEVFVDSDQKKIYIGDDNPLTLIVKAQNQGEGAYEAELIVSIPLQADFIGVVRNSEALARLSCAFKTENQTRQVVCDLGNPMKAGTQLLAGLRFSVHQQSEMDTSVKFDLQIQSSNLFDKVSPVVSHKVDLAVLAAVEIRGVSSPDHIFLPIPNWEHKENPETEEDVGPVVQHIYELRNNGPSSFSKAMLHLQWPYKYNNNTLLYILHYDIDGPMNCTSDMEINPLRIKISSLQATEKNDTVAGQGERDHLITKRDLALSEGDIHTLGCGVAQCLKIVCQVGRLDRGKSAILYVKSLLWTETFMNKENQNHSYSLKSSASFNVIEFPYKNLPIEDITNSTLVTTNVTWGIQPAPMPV
T1 chain 2: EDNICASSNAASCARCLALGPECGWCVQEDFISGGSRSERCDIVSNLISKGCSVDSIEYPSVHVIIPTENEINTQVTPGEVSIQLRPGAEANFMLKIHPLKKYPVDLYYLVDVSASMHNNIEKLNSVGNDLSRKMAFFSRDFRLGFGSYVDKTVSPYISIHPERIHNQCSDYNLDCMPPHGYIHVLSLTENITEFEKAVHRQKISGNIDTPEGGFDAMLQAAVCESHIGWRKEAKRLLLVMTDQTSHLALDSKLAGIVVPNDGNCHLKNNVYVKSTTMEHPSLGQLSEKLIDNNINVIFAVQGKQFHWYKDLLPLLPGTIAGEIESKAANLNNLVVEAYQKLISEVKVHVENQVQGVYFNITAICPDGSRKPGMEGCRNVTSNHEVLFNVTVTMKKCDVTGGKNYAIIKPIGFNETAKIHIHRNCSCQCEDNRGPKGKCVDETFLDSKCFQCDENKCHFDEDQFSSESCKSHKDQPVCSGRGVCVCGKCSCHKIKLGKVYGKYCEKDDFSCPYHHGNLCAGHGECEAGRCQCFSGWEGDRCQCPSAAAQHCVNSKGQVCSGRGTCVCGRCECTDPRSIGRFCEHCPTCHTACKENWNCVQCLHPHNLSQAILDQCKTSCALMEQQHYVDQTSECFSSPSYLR

B1: hIgG_VH05VK01 (antibody, V domains shown)
VH: EVQLVESGGGLVQPGGSLRLSCAASGFNIKDYYMNWVRQAPGKGLEWVGWIDPDNGNTIYDPKFQGRFTISADTSKNSAYLQMNSLRAEDTAVYYCARRLLMDYWGQGTLVTVSS
VL: DIQMTQSPSSLSASVGDRVTITCRSTKSLLHFNGNTYLFWYQQKPGKAPKRLIYYMSNLASGVPSRFSGSGSGTDFTLTISSLQPEDFATYYCMQSLEYPFTFGQGTKVEIKR
B2: ADWA11 2.4 Fab (Fab, V domains shown)
VH: B1 VH with N55Q, D61E
VL: DIQMTQSPSSLSASVGDRVTITCRSTKSLSHFNGNTYLFWYQQKPGKAPKRLIYYMSSLASGVPSRFSGSGSGTDFTLTISSLQPEDFATYYCQQSLEYPFTFGGGTKVEIK
notes: Fab; also called ADWA11 5-2 2.4; ADWA11_5-2 2.4 Fab
B3: Mouse hybridoma antibody ADWA-11 (antibody, V domains shown)
VH: EVQLQQSGAELVRPGAFVKLSCKASGFNIKDYYMNWVLQRPEQGLEWIGWIDPDNGNTIYDPKFQGKASITADTSSNTAYLQLSSLTSEDTAVYYCARRLLMDYWGQGTSVTVSS
VL: DIVMTQAAPSVPVTPGESVSISCRSTKSLLHFNGNTYLFWFLQRPGQSPQRLIYYMSNLASGVPDRFSGRGSGTDFTLRISRVEAEDVGVYYCMQSLEYPFTFGTGTKLEIK
notes: Whole native murine IgG from the hybridoma; also called mADWA11; mADWA-11
B4: Mouse hybridoma ADWA-11 Fab (Fab, V domains shown)
VH: B3 VH
VL: B3 VL
notes: Fab; also called mFab; Ms ADWA11 Fab

Columns and labels:
[1] = target: T2, human αvβ8 integrin on U251 cells (human, UniProt P06756 31-1048); assay: cell-based or functional assay
[2] = target: T2, human αvβ8 integrin on U251 cells; assay: apparent KD, flow cytometry on U251 cells
[3] = target: T2, human αvβ8 integrin on U251 cells; assay: flow cytometry, IgG binding to U251 cells (ΔMFI, background subtracted); EC50 unit inferred, axis Log10 [Ab] (nM); Table 7 of the text gives U251 app KD 430 pM
[4] = target: T3, recombinant human αvβ6 integrin (human, UniProt P06756 31-992; P18564 22-707); assay: SPR (Biacore)
T3 construct: Used in ELISA and immobilised on the Biacore chip; construct not described; also called hαvβ6; AVB6

[5] = target: T4, recombinant human αvβ3 integrin (human, UniProt P06756 31-992; P05106 27-718); assay: SPR (Biacore)
T4 construct: Used in ELISA and immobilised on the Biacore chip; construct not described; also called hαvβ3; AVB3

[6] = target: recombinant human αvβ8 integrin (human) (UniProt P06756); assay: SPR (Biacore T200), Fab over biotinylated recombinant αvβ8 on streptavidin chip, n>=3
[7] = target: T1, recombinant cynomolgus monkey αvβ8 …; assay: as above
Procedure: (§1) More specifically, recombinant αvβ8 integrin (e.g., R&D Systems) was biotin labeled via primary amines and immobilized on a Sensor Chip SA using a Biacore™ T200 instrument (GE Healthcare Life Sciences). Fab binding experiments were performed at 25° C. using a 30 μl/min flow rate in 0.01 M HEPES pH 7.4, 0.15 M NaCl, 1-2 mM MgCl₂, and 0.005% v/v surfactant P20 (HBS-P) buffer. Association was monitored for 5-10 minutes and dissociation for a further 15-20 minutes for each Fab concentration. After each injection, the chip surface was regenerated with IgG elution buffer (Thermo Fisher Scientific). All data was analyzed using the Biacore™ T200 Evaluation software. Data was dual background subtracted using the adjacent flow cell coupled with streptavidin without captured integrin, and buffer only injections. Kinetic constants for at least three experiments were obtained and reported as the mean.
(§2) To evaluate the monomeric KD of the Fab ADWA11 2.4, also referred to herein as ADWA-11 VH05-2/VK01(2.4) and ADWA11 5-2 2.4, and the parental mouse IgG, recombinant human, cynomolgus, mouse, and rat αvβ8 was immobilized on a Biacore chip and the ka and kd of the Fabs were determined as generally described herein (Table 6).

[8] = target: T5, recombinant mouse αvβ8 integrin (mouse, UniProt P43406 31-988; Q0VBD0 22-681, limits assumed); assay: as above
T5 construct: Recombinant protein immobilised on the Biacore chip
Procedure: as §1, §2

[9] = target: T6, recombinant rat αvβ8 integrin (rat, UniProt F1LZX9 31-987; A0A0G2JVU1 43-682); assay: as above
T6 construct: Recombinant protein immobilised on the Biacore chip
Procedure: as §1, §2

[10] = target: T2, human αvβ8 integrin on U251 cells; assay: flow cytometry, Fab binding to fixed U251 cells (MFI APC-A); EC50 unit inferred, axis Log10 [Ab] (nM)
[11] = target: recombinant human αvβ8 integrin (human) (UniProt P06756); assay: SPR (Biacore), additional experiments
[12] = target: T1, recombinant cynomolgus monkey αvβ8 …; assay: SPR (Biacore), additional experiments
Procedure: as §1

[13] = target: T5, recombinant mouse αvβ8 integrin; assay: SPR (Biacore), additional experiments
Procedure: as §1

[14] = target: T3, recombinant human αvβ6 integrin; assay: ELISA (title Specificity Binding ELISA), absorbance 450 nm against [mAb] (nM)
[15] = target: T4, recombinant human αvβ3 integrin; assay: as above
[16] = target: recombinant human αvβ8 integrin (human) (UniProt P06756); assay: ELISA on human αvβ8 (legend box: human avb8), mAb titration
[17] = target: T2, human αvβ8 integrin on U251 cells; assay: cell-based or functional assay; remark: listed apart in the source
[18] = target: recombinant human αvβ8 integrin (human) (UniProt P06756); assay: SPR (Biacore), Fab affinity of Table 3
[19] = target: recombinant human αvβ8 integrin (human) (UniProt P06756); assay: SPR (Biacore), Fab over immobilised recombinant αvβ8; the upper end is the human value of Tables 3 and 6

T4 sequence (P05106 27-718 limits assumed, one chain of several): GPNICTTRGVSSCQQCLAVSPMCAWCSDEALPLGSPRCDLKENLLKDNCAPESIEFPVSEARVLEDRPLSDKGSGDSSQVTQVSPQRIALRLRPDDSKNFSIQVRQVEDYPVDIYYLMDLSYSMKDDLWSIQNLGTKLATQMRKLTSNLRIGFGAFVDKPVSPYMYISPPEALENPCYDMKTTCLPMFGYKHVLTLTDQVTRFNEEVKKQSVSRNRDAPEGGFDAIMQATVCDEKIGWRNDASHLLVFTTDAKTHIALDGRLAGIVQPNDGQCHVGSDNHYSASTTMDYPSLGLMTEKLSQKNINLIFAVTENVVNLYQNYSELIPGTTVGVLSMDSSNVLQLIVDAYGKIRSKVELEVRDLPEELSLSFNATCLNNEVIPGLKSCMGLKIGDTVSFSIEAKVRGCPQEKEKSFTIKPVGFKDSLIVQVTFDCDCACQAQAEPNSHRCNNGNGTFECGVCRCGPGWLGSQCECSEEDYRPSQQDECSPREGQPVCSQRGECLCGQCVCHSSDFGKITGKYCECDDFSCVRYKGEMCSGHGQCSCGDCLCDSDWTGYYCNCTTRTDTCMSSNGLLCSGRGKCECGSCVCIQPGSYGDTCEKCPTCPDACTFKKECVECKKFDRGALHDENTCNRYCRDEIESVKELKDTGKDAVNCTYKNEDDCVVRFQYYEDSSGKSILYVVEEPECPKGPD
T3 sequence (P18564 22-707 limits assumed, one chain of several): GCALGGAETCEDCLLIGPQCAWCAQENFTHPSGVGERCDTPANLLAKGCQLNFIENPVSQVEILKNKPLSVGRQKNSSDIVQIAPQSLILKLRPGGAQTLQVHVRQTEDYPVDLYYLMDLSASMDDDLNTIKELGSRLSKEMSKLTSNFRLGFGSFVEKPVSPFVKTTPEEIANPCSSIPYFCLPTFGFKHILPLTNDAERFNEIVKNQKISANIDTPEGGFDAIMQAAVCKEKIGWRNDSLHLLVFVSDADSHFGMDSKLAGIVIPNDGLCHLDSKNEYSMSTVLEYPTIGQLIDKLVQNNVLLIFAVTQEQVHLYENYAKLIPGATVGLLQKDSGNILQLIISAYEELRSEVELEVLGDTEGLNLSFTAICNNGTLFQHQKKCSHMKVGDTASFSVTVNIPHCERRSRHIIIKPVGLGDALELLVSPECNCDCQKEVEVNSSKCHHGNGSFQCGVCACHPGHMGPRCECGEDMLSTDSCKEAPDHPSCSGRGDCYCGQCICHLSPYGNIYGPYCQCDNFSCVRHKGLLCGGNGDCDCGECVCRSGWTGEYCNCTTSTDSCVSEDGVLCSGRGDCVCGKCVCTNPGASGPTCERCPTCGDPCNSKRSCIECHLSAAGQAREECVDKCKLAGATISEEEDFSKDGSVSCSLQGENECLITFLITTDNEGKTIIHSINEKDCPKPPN
T5 sequence (P43406 31-988 limits assumed, chain 1 of 2): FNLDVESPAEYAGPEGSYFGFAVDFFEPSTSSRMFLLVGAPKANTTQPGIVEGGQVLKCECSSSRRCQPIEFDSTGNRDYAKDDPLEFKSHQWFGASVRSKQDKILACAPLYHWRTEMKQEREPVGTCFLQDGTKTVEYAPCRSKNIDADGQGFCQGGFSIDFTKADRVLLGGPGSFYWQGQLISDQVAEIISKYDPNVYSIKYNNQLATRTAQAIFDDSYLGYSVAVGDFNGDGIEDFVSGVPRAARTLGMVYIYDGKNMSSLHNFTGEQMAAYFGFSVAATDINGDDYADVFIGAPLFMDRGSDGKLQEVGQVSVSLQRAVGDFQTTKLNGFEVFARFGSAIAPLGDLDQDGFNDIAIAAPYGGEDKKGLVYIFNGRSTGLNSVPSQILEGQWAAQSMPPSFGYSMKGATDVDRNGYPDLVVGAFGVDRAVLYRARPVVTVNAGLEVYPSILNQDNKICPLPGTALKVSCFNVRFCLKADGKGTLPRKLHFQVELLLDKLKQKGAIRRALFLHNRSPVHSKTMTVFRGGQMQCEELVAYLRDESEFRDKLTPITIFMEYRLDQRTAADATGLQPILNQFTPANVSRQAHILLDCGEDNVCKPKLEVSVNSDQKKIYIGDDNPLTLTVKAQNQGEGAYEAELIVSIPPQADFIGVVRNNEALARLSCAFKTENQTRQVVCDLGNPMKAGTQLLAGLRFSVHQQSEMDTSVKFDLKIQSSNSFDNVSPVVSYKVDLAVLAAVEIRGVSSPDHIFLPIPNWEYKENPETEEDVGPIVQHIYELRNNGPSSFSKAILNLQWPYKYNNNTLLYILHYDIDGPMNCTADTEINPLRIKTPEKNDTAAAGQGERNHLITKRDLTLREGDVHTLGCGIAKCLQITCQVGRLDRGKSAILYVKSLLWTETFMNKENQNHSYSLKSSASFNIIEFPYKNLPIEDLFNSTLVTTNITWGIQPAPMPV
T5 sequence (Q0VBD0 22-681 limits assumed, chain 2 of 2): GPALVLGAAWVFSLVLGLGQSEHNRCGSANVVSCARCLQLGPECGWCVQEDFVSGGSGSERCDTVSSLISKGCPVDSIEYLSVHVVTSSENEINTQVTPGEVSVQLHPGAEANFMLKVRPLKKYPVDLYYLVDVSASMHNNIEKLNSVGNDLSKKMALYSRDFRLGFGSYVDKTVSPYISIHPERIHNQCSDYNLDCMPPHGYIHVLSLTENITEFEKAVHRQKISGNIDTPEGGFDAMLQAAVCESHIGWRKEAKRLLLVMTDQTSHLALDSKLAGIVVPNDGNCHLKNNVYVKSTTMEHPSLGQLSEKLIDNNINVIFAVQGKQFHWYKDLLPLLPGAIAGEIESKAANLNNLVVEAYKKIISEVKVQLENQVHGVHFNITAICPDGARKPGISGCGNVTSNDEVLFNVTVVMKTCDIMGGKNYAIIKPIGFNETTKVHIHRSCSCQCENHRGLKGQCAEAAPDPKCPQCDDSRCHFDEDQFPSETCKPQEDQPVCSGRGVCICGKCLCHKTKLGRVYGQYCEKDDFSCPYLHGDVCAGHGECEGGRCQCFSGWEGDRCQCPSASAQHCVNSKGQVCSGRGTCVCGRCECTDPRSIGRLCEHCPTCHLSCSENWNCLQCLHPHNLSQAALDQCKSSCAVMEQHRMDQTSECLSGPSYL

Row | Binder | IgG Potency TGFB Assay IC50 (pM) [1] | binding result [4] | binding result [5] | Kd [6] | koff [6] | kon [6] | Kd [7] | koff [7] | kon [7] | Kd [8] | koff [8] | kon [8] | other results
1 | B1 | 148 pM |  |  |  |  |  |  |  |  |  |  |  | Kd [2]: 0.43 nM; EC50 [3]: 0.434 nM
2 | B2 |  | no binding | no binding | < 0.2 nM | < 3e-05 s⁻¹ | 161000 M⁻¹ s⁻¹ | ≤ 0.2 nM | ≤ 2e-05 s⁻¹ | 172000 M⁻¹ s⁻¹ | ≤ 0.2 nM | 1.82e-05 s⁻¹ | 257000 M⁻¹ s⁻¹ | Kd [9]: ≤ 0.2 nM; koff [9]: ≤ 2e-05 s⁻¹; kon [9]: 341000 M⁻¹ s⁻¹; EC50 [10]: 0.205 nM; Kd [11]: < 0.1 nM; Kd [12]: < 0.1 nM; Kd [13]: 0.0708 nM
3 | B3 | 183 pM |  |  |  |  |  |  |  |  |  |  |  | binding result [14]: no binding (tested: about 500 nM); binding result [15]: no binding (tested: about 500 nM); EC50 (read off the curve) [16]: 0.3 nM
4 | B4 |  | no binding | no binding | 0.536 nM | 4.86e-05 s⁻¹ | 92200 M⁻¹ s⁻¹ | 0.507 nM | 4.97e-05 s⁻¹ | 98100 M⁻¹ s⁻¹ | 0.489 nM | 5.03e-05 s⁻¹ | 103000 M⁻¹ s⁻¹ | EC50 value measured by apparent affinity in the TGF-β transactivation assay [17]: 4.6 nM; Kd [18]: 0.536 nM; kon [18]: 92200 M⁻¹ s⁻¹; Kd [19]: 0.489 to 0.536 nM
